These results are taken from patent US10143747B2, “Breast cancer therapeutics” (IMBA—INSTITUT FÜR MOLEKULARE BIOTECHNOLOGIE GMBH, priority 2010, dated 2018).

The test system of this assay is human SKBR3 breast cancer cells. Kind of assay: Soft-Agar Colony Formation Assay (anchorage-independent growth). The assay is classed as cell-based. The conditions noted are these: OPG 1 μg/ml with RANKL 1 μg/ml, 18 days in culture. On the procedure: a, Western blotting for phosphorylated (P) IKKα, total IKKα, phosphorylated (P) p65 NFκB, total p65 NFκB, phosphorylated (P) IκBα, and total IκBα in isolated primary mouse mammary gland epithelial cells (MECs) in response to RANKL stimulation (1 μg/ml). β-actin is shown as loading control. b, Western blotting for IKKα, IKKβ, IKKγ, phosphorylated (P) p65 NFκB, total p65 NFκB, phosphorylated (P) IκBα, and total IκBα in pooled late stage mammary adenocarconimas (n=4 for each lane) that developed in control, RANK^Δmam and IKKΔ^Δmam females. β-actin is shown as loading control c, Expression of RANK, CyclinD1, and p21 mRNA in late stage mammary adenocacinomas that developed in control, RANK^Δmam, and IKKα^Δmam females. Expression was determined by qRT-PCR. Data are mean values+/−sem. n=4 per group. d, Soft-Agar Colony Formation Assay. Growth of human SKBR3 breast cancer cells in soft agar in response to stimulation with RANKL (1 μg/ml) or EGF (100 ng/ml). Anchorage-independent, macroscopic colonies formed after 18 days in culture with RANKL, which was prevented by the decoy receptor OPG (1 μg/ml). […] Apoptosis was detected by immunostaining for active Caspase 3. f, Apoptotic nuclei of epithelial cells (arrows) are shown for representative mammary gland sections. Magnifications×40. g, Quantification of mammary epithelial apoptosis. A minimum of 5000 nuclei was counted for each mouse. […]

B1: OPG: secreted decoy receptor of RANKL, used as RANKL inhibitor (1 μg/ml) (protein, UniProt O00300 22-401, looked up)
Tumor necrosis factor …: ETFPPKYLHYDEETSHQLLCDKCPPGTYLKQHCTAKWKTVCAPCPDHYYTDSWHTSDECLYCSPVCKELQYVKQECNRTHNRVCECKEGRYLEIEFCLKHRSCPPGFGVVQAGTPERNTVCKRCPDGFFSNETSSKAPCRKHTNCSVFGLLLTQKGNATHDNICSGNSESTQKCGIDVTLCEEAFFRFAVPTKFTPNWLSVLVDNLPGTKVNAESVERIKRQHSSQEQTFQLLKLWKHQNKDQDIVKKIIQDIDLCENSVQRHIGHANLTFEQLRSLMESLPGKKVGAEDIEKTIKACKPSDQILKLLSLWRIKNGDQDTLKGLMHALKHSKTYHFPKTVTQSLKKTIRFLHSFTMYKLYQKLFLEMIGNQVQSVKISCL
For the molecule B1, the “effect on RANKL-induced anchorage-independent macroscopic colonies” value is “prevented”.
